Measured values from the supplement of paper PMC7125110.
± gives the standard error. For some assays here: Variants at the floor of the assay were thinned out.

B1: glmS ribozyme (parent)
chain: AUAAAAGCGCCAGAACUACAGAAAUGUAGUUGACGAGGAGGAGGUUUAUCGAAUUUUCGGCGGAUGCCUCCAAA

Columns and labels:
Conditions in all cases: with glucosamine-6-phosphate
glucosamine-6-phosphate [1] = variants of: B1; experiment: kcat; higher = faster cleavage; RNA array
Method in brief: (§1)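 kobs was derived by fitting per-tile medians to one- or two-exponential decays after normalising signals to baseline and to non-cleaving reference variants. Those signals came from barcoded ribozyme variants transcribed in situ by E. coli RNA polymerase on sequenced MiSeq chips, followed through a hybridised Cy3 probe at 37 °C and imaged over ~14 h. Glucosamine-6-phosphate (40 μM to 10 mM) in HEPES/KCl/Mg(OAc)2 buffer was flowed in. Weighted Michaelis–Menten fits across concentrations then gave kcat and KM.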

glucosamine-6-phosphate [2] = variants of: B1; experiment: KM; higher = weaker cofactor use; RNA array
Method in brief: as §1

glucosamine-6-phosphate [3] = variants of: B1; experiment: self-cleavage kobs at 40 uM GlcN6P; higher = faster cleavage; RNA array
Method in brief: as §1

glucosamine-6-phosphate [4] = variants of: B1; experiment: self-cleavage kobs at 160 uM GlcN6P; higher = faster cleavage; RNA array
Method in brief: as §1

glucosamine-6-phosphate [5] = variants of: B1; experiment: self-cleavage kobs at 640 uM GlcN6P; higher = faster cleavage; RNA array
Method in brief: as §1

glucosamine-6-phosphate [6] = variants of: B1; experiment: self-cleavage kobs at 2500 uM GlcN6P; higher = faster cleavage; RNA array
Method in brief: as §1

glucosamine-6-phosphate [7] = variants of: B1; experiment: self-cleavage kobs at 10000 uM GlcN6P; higher = faster cleavage; RNA array
Method in brief: as §1

| Variant | kcat (glucosamine-6-phosphate [1]) [s⁻¹] | KM (glucosamine-6-phosphate [2]) [µM] | self-cleavage kobs at 40 uM GlcN6P (glucosamine-6-phosphate [3]) [s⁻¹] | self-cleavage kobs at 160 uM GlcN6P (glucosamine-6-phosphate [4]) [s⁻¹] | self-cleavage kobs at 640 uM GlcN6P (glucosamine-6-phosphate [5]) [s⁻¹] | self-cleavage kobs at 2500 uM GlcN6P (glucosamine-6-phosphate [6]) [s⁻¹] | self-cleavage kobs at 10000 uM GlcN6P (glucosamine-6-phosphate [7]) [s⁻¹] |
| --- | --- | --- | --- | --- | --- | --- | --- |
| A15G G62C U69G | 1.74e-05 ± 5.1e-06 | – | – | – | – | – | – |
| G21U | 0.0659 ± 0.016 | 2090 ± 600 | 0.00136 ± 8.6e-05 | 0.00351 ± 0.00055 | 0.0147 ± 0.0015 | 0.0337 ± 0.0063 | 0.059 ± 0.0083 |
| C11U G37C U57A | 1.82e-05 ± 2.9e-06 | – | – | – | – | – | < 1e-05 |
| A14U A39G | 0.0158 ± 0.0077 | – | 0.000381 ± 6.3e-05 | 0.000604 ± 0.00015 | 0.00493 ± 0.0011 | 0.00644 ± 0.0013 | 0.0136 ± 0.0025 |
| U56C G66A | 0.00312 ± 0.0012 | – | 6.93e-05 ± 1.3e-05 | 8.16e-05 ± 1.9e-05 | 0.000501 ± 8.4e-05 | 0.00117 ± 0.00022 | 0.0022 ± 0.00026 |
| A6G U31G | 0.000452 ± 9.7e-05 | 4990 ± 1600 | – | – | 4.67e-05 ± 9.4e-06 | 0.000183 ± 3.2e-05 | 0.000281 ± 5.8e-05 |
| G32C A33G | < 1e-05 | – | < 1e-05 | < 1e-05 | – | < 1e-05 | – |
| U31A U45G | 0.0028 ± 0.00084 | 1730 ± 710 | 7.39e-05 ± 1.2e-05 | 0.000168 ± 4e-05 | 0.000882 ± 0.00014 | 0.00203 ± 0.00033 | 0.00194 ± 0.00049 |
| G44U C67U | 0.00551 ± 0.0015 | 727 ± 310 | 0.000365 ± 4e-05 | 0.000837 ± 0.00016 | 0.00206 ± 0.00029 | 0.00417 ± 0.00073 | 0.00691 ± 0.001 |
| A20G G37C C58A | 1.09e-05 ± 2.8e-06 | – | – | – | – | – | – |
| A15U G40A | 0.000675 ± 9.5e-05 | 912 ± 230 | 4.43e-05 ± 1.2e-05 | 8.75e-05 ± 1.8e-05 | 0.000282 ± 4.7e-05 | 0.000515 ± 0.0001 | 0.000611 ± 0.0001 |
| U54G U56A G66A | 0.00395 ± 0.00074 | 1470 ± 370 | 0.000108 ± 1.7e-05 | 0.000344 ± 5.5e-05 | 0.00162 ± 0.00028 | 0.00236 ± 0.00049 | 0.00335 ± 0.00067 |
| C10A U69C | 1.7e-05 ± 1.9e-06 | – | – | – | – | – | – |
| U30G A53U | 0.00761 ± 0.0027 | – | 0.000261 ± 3.2e-05 | 0.000465 ± 0.00011 | 0.0019 ± 0.00032 | 0.00357 ± 0.0007 | 0.00788 ± 0.0011 |
| C16G U56C | 0.000431 ± 6.4e-05 | – | – | – | – | 0.000276 ± 4.5e-05 | 0.000354 ± 3.8e-05 |
| G29A U55A | 0.00461 ± 0.0011 | 1320 ± 440 | 0.000165 ± 2e-05 | 0.000532 ± 9.2e-05 | 0.00123 ± 0.00015 | 0.00332 ± 0.00066 | 0.00456 ± 0.00065 |
| G13U U46A | 3.16e-05 ± 1.5e-06 | 479 ± 200 | – | – | – | 2.81e-05 ± 1.2e-05 | 2.96e-05 ± 9.4e-06 |
| A14C U65A | 0.000588 ± 2.2e-05 | 3100 ± 210 | – | – | 0.000103 ± 1.5e-05 | 0.000248 ± 5e-05 | 0.000453 ± 5.4e-05 |
| U65A C70G | 7.88e-05 ± 4.1e-06 | 66.3 ± 25 | – | 5.95e-05 ± 1.2e-05 | 7.89e-05 ± 1e-05 | 7.95e-05 ± 1e-05 | 7.32e-05 ± 7.6e-06 |
| U45G C68G | 0.000114 ± 1.6e-05 | 2980 ± 1100 | – | – | 2.89e-05 ± 1.3e-05 | 4.55e-05 ± 1.3e-05 | 8.96e-05 ± 1.3e-05 |
| C16G A53C | 0.000746 ± 0.0001 | 1750 ± 490 | – | 4.82e-05 ± 2.3e-05 | 0.000233 ± 6.3e-05 | 0.000524 ± 0.00012 | 0.000599 ± 0.0001 |
| A6U A39U | 0.000104 ± 2.7e-06 | 2160 ± 150 | – | – | 2.53e-05 ± 8.4e-06 | 5.5e-05 ± 7.8e-06 | 8.67e-05 ± 1.1e-05 |
| U45G U56A | 0.00335 ± 0.00043 | 1720 ± 280 | 7.59e-05 ± 1.8e-05 | 0.000299 ± 6.2e-05 | 0.000848 ± 0.00019 | 0.00206 ± 0.00051 | – |
| U46C U56A | 0.00121 ± 0.00013 | 1470 ± 230 | 2.85e-05 ± 1e-05 | 0.000117 ± 1.4e-05 | 0.000406 ± 0.00011 | 0.000915 ± 0.00015 | 0.00098 ± 0.00014 |
| A52G C67G | 0.000104 ± 6.8e-06 | 22.4 ± 10 | 6.74e-05 ± 9e-06 | 7.15e-05 ± 2.3e-05 | 0.000107 ± 1e-05 | 0.000123 ± 1.6e-05 | 9.62e-05 ± 8.6e-06 |
| A14U A48U | 0.000103 ± 7.3e-06 | 9240 ± 1300 | – | – | – | – | 5.37e-05 ± 9.7e-06 |
| A15G U46A | 0.00453 ± 0.00029 | 1890 ± 170 | 9.83e-05 ± 1.5e-05 | 0.0003 ± 9.6e-05 | 0.00114 ± 0.00035 | 0.00258 ± 0.00041 | 0.00382 ± 0.00063 |
| C16G A39G | 0.0108 ± 0.0041 | – | 0.000228 ± 4.9e-05 | 0.000353 ± 0.00011 | 0.00194 ± 0.00038 | 0.00841 ± 0.0019 | 0.00779 ± 0.0013 |
| G13U G29U | 0.000324 ± 4.8e-05 | 3430 ± 1000 | – | – | 4.23e-05 ± 9.2e-06 | 0.000161 ± 2.1e-05 | 0.000234 ± 2.3e-05 |
